B1: Sorting nexin-20 (Homo sapiens), Q7Z614 (parent)
chain: MASPEHPGSPGCMGPITQCTARTQQEAPATGPDLPHPGPDGHLDTHSGLSSNSSMTTRELQQYWQNQKCRWKHVKLLFEIASARIEERKVSKFVVYQIIVIQTGSFDNNKAVLERRYSDFAKLQKALLKTFREEIEDVEFPRKHLTGNFAEEMICERRRALQEYLGLLYAIRCVRRSREFLDFLTRPELREAFGCLRAGQYPRALELLLRVLPLQEKLTAHCPAAAVPALCAVLLCHRDLDRPAEAFAAGERALQRLQAREGHRYYAPLLDAMVRLAYALGKDFVTLQERLEESQLRRPTPRGITLKELTVREYLH
partner: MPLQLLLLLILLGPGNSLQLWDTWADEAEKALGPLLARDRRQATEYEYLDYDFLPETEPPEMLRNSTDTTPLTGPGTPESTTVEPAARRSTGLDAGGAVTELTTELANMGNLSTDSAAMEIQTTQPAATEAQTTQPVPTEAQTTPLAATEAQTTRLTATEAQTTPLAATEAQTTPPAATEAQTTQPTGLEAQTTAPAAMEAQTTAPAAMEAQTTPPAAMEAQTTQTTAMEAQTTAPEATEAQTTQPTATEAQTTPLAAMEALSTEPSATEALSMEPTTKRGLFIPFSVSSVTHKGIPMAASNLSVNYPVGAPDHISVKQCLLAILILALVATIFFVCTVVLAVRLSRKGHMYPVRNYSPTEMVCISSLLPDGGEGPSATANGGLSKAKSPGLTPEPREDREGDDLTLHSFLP

In the assay the parent is B1. The following applies: with selpl_human SELPLG.
In the case of MASPEHPGSPGCMGPITQCTARTQQEAPATGPDLPHPGPDGHLDTHSGLSSNSSMTTRELQQYWQNQKCRWKHVKLLFEIASARIEERKVSKFVVYQIIVIQTGSFDNNKAVLERQYSDFAKLQKALLKTFREEIEDVEFPRKHLTGNFAEEMICERRRALQEYLGLLYAIRCVRRSREFLDFLTRPELREAFGCLRAGQYPRALELLLRVLPLQEKLTAHCPAAAVPALCAVLLCHRDLDRPAEAFAAGERALQRLQAREGHRYYAPLLDAMVRLAYALGKDFVTLQERLEESQLRRPTPRGITLKELTVREYLH [R116Q], the “effect of a mutation on the interaction” value is reported as “disrupting interaction”.
